In publication doi:10.1101/2025.05.24.655970:

Target: Dob3, ferritin-like diiron oxidase/oxygenase (FDO) of the dob gene cluster (Nocardia ninae)
Assay: SEC; size-exclusion chromatography of purified Dob3; column and buffer not told in the text shown (Supplementary Figure 19)

Q: How did the stoichiometry N turn out when “Dob3, ferritin-like diiron oxidase/oxygenase (FDO) of the dob gene cluster (enzyme)” was run?
A: The stoichiometry N was 2.
